We go through 15 molecules from patent US20240376189A1 (University of Pennsylvania, published 2024).

The chains are these.
T1: human C5a (human, UniProt P01031 678-751, biotinylated in the U937/C5aR ligand blocking assay (site not stated))
T1 construct: also called human antigen; huC5a
T1 sequence: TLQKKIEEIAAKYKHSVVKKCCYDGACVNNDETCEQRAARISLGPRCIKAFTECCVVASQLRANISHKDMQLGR

B1: 13B7 (scFv, V domains shown)
VH: QVQLVQSGAEVKKPGSSVKVSCKASGYTFTDHIIHWMRQAPGQGLEWMGYIYPREGWTNYNENFKGRVTITADKSTSTAYMELSSLRSEDTAVYYCARERNLEYFDYWGQGTTVTVSS
VL: DIVLTQSPASLAVSPGQRATITCKASQSVDYEGFNYMNWYQQKPGQPPKLLIYAASNLDSGVPARFSGSGSGTDFTLTINPVEAEDTANYYCQQSVEDPHTFGGGTKVEIK
notes: Combination mutant scFv
B2: 17D2 (scFv, V domains shown)
VH: B1 VH
VL: B1 VL with Y31F, F34D, A55T
notes: Combination mutant scFv
B3: 2H8E10 (scFv, V domains shown)
VH: B1 VH
VL: B1 VL with F34D, V96N
notes: Combination mutant scFv
B4: 18F5 (scFv, V domains shown)
VH: B1 VH with W57F
VL: B1 VL with Y31F
notes: Combination mutant scFv
B5: 18D3 (scFv, V domains shown)
VH: B1 VH
VL: B1 VL with F34D, A55T
notes: Combination mutant scFv
B6: 16F10 (scFv, V domains shown)
VH: B1 VH
VL: B1 VL with Y31F
notes: Combination mutant scFv
B7: 10F5 (scFv, V domains shown)
VH: B1 VH
VL: B1 VL with F34D, A55T, V96L
notes: Combination mutant scFv
B8: 19D2 (scFv, V domains shown)
VH: B1 VH
VL: B1 VL with Y31F, F34D, A55T, V96L
notes: Combination mutant scFv
B9: 11A11 (scFv, V domains shown)
VH: B1 VH
VL: B1 VL with Y31F, A55T
notes: Combination mutant scFv
B10: 8H8 (scFv, V domains shown)
VH: B1 VH
VL: B1 VL with A55T, V96L
notes: Combination mutant scFv
B11: 16C2 (scFv, V domains shown)
VH: B1 VH
VL: B1 VL with A55T
notes: Combination mutant scFv
B12: 13B9 (scFv, V domains shown)
VH: B1 VH
VL: B1 VL with Y31F, V96N
notes: Combination mutant scFv
B13: 16D10 scFv (scFv, V domains shown)
VH: B1 VH
VL: B1 VL with V96N, H100Y
B14: 8C1 (scFv, V domains shown)
VH: B1 VH
VL: B1 VL with Y31F, V96L
notes: Combination mutant scFv
B15: 5G11 (scFv, V domains shown)
VH: B1 VH
VL: B1 VL with V96L
notes: Combination mutant scFv

Numbering of substitutions follows the chain as printed.

One test has as its target T2, cynomolgus antigen (cynomolgus).
T2 construct: also called cyno antigen; cynomolgus monkey C5a
Kind of test: SPR, scFv captured via anti-c-myc/anti-His, 60 nM cynomolgus antigen as analyte, 1:1 fit. The method, then: The activator was prepared by mixing 400 mM EDC (1-ethyl-3-(3-dimethylaminopropyl) carbodiimide) and 100 mM NHS (N-hydroxysuccinimide) (GE) immediately prior to injection. The CMS sensor chip was activated for 600 s with the mixture at a flow rate of 10 μL/min. Mixture of anti-c-myc and anti his antibodies in 10 mM NaAc (pH 4.5) was then injected to Fc1 and Fc2 of channel 1 to channel 8 for 600 seconds at a flow rate of 10 μL/min. The chip was deactivated by 1 M ethanolamine-HCl (GE) at a flow rate of 10 μL/min for 420 seconds.
The anti-C5a scFv was diluted to 0.5 μg/ml, the other samples were diluted to 2 μg/ml in running buffer 1×HBS-EP+ (0.01 M HEPES, 0.15 M NaCl, 0.003 M EDTA, 0.05% surfactant P20). […] Diluted TES buffer was injected into channel Fc1 at a flow rate of 10 μL/min for 40 s, diluted scFv was injected into channel Fc2 at a flow rate of 10 μL/min for 40 s. […] 10 mM glycine pH 1.5 as regeneration buffer was injected following every dissociation phase. The chip was regenerated with 10 mM glycine pH 1.5.
The sensorgrams for reference channel Fc1 and buffer channel were subtracted from the test sensorgrams. Data were fitted by 1:1 kinetic binding model. Molecular weight of 8.4 kDa was used to calculate the molar concentration of the cyno antigen.
A general note: SPR reads the build-up and loss of mass on a sensor chip optically.
As a reminder, the koff is a measure of how fast the partners let go of each other. Low readings indicate a long-lived complex, high ones a short-lived complex. The molecule B1 yielded a dissociation rate constant (koff) of 0.000252 s⁻¹.

B2 gave a koff of 0.0019 s⁻¹.

For B3, the off-rate (koff) was determined as 0.00258 s⁻¹.

B4 showed a koff of 0.000319 s⁻¹.

B5 showed an off-rate (koff) of 0.00418 s⁻¹.

In the case of B6, the koff was 0.000155 s⁻¹.

Molecule B7 registered a koff of 0.00202 s⁻¹.

As for B8, the koff came out at 0.00102 s⁻¹.

B9 gave a koff of 0.000786 s⁻¹.

As for B10, the koff was determined as 0.000927 s⁻¹.

In turn, B11 showed a koff of 0.00176 s⁻¹.

For the molecule B12, the koff is 0.000327 s⁻¹.

As to B13, the off-rate (koff) was found to be 0.000465 s⁻¹.

In the case of B14, the off-rate (koff) was 0.000481 s⁻¹.

B15 came in with an off-rate (koff) of 0.000279 s⁻¹.

The next test has as its target T1, human C5a. Kind of test: SPR, scFv captured via anti-c-myc/anti-His, 5 nM human antigen as analyte, 1:1 fit.
B1 gave a dissociation rate constant (koff) of under 1e-05 s⁻¹.

As for B2, the koff came out at 1.89e-05 s⁻¹.

B3 showed a koff of 1.82e-05 s⁻¹.

As for B4, the off-rate constant (koff) turned out to be 3.03e-05 s⁻¹.

Take B5: the off-rate constant (koff) was 2.98e-05 s⁻¹.

Turning to B6, the koff was determined as 1.14e-05 s⁻¹.

Turning to B7, the koff is under 1e-05 s⁻¹.

For B8, the dissociation rate constant (koff) was under 1e-05 s⁻¹.

For the molecule B9, the dissociation rate constant (koff) is under 1e-05 s⁻¹.

B10 had a koff of 2.69e-05 s⁻¹.

With B11, the off-rate (koff) was 2.58e-05 s⁻¹.

B12: the koff turned out to be 2.2e-05 s⁻¹.

B13 yielded a dissociation rate constant (koff) of 2.34e-05 s⁻¹.

With B14, the off-rate constant (koff) is under 1e-05 s⁻¹.

The molecule B15 came in with a koff of under 1e-05 s⁻¹.

Another test concerns the target T2, cynomolgus antigen. Kind of test: affinity-ranking ELISA: cynomolgus antigen coated on the plate, normalized scFv periplasmic extract in 3-fold dilutions from 100 nM, anti-c-myc-HRP, OD450. The method, then: The affinity ranking ELISA was carried out as following: scFv concentrations in PEs were measured by Quantification ELISA using purified scFv sample as a standard. Briefly, anti-His-antibody (Genscript-A00186) were coated on the plates in coating buffer PBS at pH7.4 overnight at 4° C. The next day, plates were blocked with casein in PBS at pH7.4 for 1 hour at 25° C. ScFv containing PEs were diluted 3 fold serial dilutions and then added to the plates. A purified scFv standard sample with known concentration was used as a standard. After incubation at 25° C. for 1 hour and washing 3 times with PBS-T, anti-c-myc-HRP (Bethyl-A190-104P) was added to the wells followed by incubation for 1 hour at 25° C. HRP activity was detected with TMB substrate and the reaction was quenched with 2M HCl. Plates were read at 450 nm.
The next day, plates were blocked with casein in PBS for 1 hour at 25° C. Normalized scFv containing PEs were diluted using 3 fold serial dilutions starting at 100 nM, added to the plates and incubated at 25° C. for 1 hour. After washing, anti-c-myc-HRP was added to the wells followed by incubation for 1 hour at 25° C. HRP activity was detected with TMB substrate and the reaction was quenched with 2M HCl. Plates were read at 450 nm. Data were fitted into one-site binding equation using GraphPad Prism 5 software.
For orientation: EC50 (read off the curve) means the concentration that produces a half-maximal response. Low readings indicate greater potency, high ones weaker potency. Take B1: the concentration for a half-maximal effect (EC50 (read off the curve)) is about 6 nM.

Regarding B4, the half-maximal effective concentration (EC50 (read off the curve)) is about 8 nM.

For the molecule B6, the “EC50 (read off the curve)” value is about 4 nM.

For the molecule B12, the “EC50 (read off the curve)” value is about 10 nM.

B13: the half-maximal effective concentration (EC50 (read off the curve)) is about 20 nM.
